This is an account of results in the supplement of paper PMC10065799, “High-throughput profiling of sequence recognition by tyrosine kinases and SH2 domains using bacterial peptide display” (eLife, 2023).

Series [1] deals with Fyn (UniProt P06241). Briefly: phosphorylation enrichment, bacterial display (enrichment ratio); higher = better substrate or ligand; peptides without Tyr show the background.
Series [2] has as its system Fer (mouse). Described as above.
Series [3] has as its target Fes (UniProt P07332). The description is as above.
Series [4] has as its target EPHB1 (UniProt P54762). The series is described as above.
Series [5] has as its target Hck (UniProt P08631). Described as above.
Series [6] has as its target FGFR3 (UniProt P22607). Described as above.
The subject of series [7] is c-Abl (mouse). The description is as above.
In series [8] the target is FGFR1 (UniProt P11362). The series is described as above.
In series [9] the target is Jak2 (UniProt O60674). The series is described as above.
Series [10] deals with AncSZ. The series is described as above.
In series [11] the test system is c-Src. Described as above.
Series [12] has as its target MERTK (UniProt Q12866). Described as above.
Series [13] deals with EPHB2 (UniProt P29323). The description is as above.
Series [14] deals with c-Src SH2. Briefly: SH2 binding enrichment of the phosphorylated peptide, bacterial display (enrichment ratio); higher = better substrate or ligand; peptides without Tyr show the background.
In series [15] the target is Grb2 SH2 (UniProt P62993). The description is as above.
Series [16] has as its target SHP2-C SH2. The series is described as above.
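For SH2 binding enrichment of the phosphorylated peptide, bacterial display in this document: peptide library displayed on the E. coli surface as eCPX fusions, selected cells deep-sequenced, score is each peptide's frequency after selection divided by its frequency in the input.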
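For phosphorylation enrichment, bacterial display in this document: 11-residue human phosphosite peptides and single-mutation variants displayed on the E. coli surface, counted by deep sequencing, each peptide's frequency after selection divided by its frequency in the unselected input library; frequency after pTyr selection over input frequency; kinase dosed for 20-30% of maximal phosphorylation in three min.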

Chain of Fyn (P06241 whole entry, looked up): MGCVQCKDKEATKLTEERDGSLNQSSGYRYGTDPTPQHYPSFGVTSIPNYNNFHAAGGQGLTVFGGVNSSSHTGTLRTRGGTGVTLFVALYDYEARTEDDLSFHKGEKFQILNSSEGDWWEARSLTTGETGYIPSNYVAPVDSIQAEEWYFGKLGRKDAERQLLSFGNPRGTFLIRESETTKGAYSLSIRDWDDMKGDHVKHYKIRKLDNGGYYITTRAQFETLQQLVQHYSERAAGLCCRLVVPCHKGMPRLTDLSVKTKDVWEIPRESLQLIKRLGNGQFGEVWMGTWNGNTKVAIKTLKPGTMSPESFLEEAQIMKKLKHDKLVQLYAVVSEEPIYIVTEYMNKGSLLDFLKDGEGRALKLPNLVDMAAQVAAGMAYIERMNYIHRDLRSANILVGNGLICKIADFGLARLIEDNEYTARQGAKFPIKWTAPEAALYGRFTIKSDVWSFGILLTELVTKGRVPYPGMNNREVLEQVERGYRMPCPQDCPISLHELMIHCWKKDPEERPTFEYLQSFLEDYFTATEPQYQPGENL
Chain of EPHB1 (P54762 whole entry, looked up): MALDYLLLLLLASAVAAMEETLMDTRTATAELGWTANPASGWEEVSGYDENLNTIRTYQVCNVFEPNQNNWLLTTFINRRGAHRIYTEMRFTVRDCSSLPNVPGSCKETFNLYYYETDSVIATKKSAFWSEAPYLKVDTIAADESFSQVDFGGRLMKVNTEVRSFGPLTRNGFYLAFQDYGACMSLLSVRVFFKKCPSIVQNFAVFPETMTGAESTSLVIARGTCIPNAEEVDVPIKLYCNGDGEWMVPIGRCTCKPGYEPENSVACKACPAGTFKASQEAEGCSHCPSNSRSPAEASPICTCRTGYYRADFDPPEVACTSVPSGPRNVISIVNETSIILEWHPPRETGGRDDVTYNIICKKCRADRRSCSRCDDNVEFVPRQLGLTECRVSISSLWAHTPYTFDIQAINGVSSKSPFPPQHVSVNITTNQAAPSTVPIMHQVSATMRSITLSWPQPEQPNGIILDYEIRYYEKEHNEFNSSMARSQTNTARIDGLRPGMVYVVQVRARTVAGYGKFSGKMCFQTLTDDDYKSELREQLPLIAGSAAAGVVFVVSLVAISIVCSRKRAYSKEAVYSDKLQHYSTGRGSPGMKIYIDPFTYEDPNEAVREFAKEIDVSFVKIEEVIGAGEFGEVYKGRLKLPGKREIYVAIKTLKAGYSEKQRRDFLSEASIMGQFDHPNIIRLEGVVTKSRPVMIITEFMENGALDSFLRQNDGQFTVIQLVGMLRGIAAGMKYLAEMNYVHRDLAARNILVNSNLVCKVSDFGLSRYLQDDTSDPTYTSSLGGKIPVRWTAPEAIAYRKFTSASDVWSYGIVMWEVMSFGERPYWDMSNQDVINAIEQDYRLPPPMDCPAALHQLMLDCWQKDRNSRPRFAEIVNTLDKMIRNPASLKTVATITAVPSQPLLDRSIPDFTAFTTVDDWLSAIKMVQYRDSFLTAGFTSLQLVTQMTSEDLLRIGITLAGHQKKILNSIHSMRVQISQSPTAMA
Chain of EPHB2 (P29323 whole entry, looked up): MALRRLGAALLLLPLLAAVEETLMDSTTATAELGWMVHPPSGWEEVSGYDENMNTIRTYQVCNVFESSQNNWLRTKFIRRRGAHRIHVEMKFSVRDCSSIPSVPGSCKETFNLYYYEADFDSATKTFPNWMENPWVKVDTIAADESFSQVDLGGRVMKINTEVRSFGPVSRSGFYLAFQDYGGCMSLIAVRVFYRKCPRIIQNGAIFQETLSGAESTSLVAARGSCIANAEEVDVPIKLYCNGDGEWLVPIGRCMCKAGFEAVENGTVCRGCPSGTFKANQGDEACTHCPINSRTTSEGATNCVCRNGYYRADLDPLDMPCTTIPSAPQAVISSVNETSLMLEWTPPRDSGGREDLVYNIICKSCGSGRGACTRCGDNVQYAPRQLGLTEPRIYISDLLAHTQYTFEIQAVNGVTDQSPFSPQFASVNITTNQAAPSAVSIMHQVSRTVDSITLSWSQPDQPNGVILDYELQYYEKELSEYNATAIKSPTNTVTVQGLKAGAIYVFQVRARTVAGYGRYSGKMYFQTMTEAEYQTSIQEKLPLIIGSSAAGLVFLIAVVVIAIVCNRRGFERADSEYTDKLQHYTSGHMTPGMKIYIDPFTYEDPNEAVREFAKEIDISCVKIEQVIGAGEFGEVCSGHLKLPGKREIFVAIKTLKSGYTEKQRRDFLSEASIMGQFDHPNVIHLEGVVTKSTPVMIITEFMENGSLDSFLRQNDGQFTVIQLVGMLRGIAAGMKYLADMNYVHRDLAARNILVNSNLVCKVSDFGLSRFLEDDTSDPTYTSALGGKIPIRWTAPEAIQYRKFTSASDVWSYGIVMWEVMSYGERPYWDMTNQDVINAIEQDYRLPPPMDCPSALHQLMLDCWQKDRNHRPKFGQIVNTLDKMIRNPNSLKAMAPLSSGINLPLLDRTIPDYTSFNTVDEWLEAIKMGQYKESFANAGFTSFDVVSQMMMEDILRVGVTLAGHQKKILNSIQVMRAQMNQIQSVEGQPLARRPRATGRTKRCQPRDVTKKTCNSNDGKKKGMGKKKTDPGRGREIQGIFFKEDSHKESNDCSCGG
Chain of Hck (P08631 whole entry, looked up): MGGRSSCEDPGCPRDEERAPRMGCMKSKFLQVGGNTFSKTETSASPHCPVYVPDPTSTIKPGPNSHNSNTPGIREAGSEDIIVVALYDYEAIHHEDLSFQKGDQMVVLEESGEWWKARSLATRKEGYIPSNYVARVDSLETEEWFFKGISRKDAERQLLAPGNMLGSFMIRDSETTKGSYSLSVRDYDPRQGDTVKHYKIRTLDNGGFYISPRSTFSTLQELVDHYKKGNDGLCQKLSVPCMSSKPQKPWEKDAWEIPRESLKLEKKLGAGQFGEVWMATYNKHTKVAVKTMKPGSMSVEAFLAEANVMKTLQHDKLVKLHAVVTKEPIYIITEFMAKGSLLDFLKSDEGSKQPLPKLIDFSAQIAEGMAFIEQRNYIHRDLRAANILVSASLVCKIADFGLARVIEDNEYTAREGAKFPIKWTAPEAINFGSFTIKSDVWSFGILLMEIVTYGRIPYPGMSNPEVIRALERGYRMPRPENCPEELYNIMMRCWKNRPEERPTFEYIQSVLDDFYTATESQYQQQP
Chain of FGFR1 (P11362 whole entry, looked up): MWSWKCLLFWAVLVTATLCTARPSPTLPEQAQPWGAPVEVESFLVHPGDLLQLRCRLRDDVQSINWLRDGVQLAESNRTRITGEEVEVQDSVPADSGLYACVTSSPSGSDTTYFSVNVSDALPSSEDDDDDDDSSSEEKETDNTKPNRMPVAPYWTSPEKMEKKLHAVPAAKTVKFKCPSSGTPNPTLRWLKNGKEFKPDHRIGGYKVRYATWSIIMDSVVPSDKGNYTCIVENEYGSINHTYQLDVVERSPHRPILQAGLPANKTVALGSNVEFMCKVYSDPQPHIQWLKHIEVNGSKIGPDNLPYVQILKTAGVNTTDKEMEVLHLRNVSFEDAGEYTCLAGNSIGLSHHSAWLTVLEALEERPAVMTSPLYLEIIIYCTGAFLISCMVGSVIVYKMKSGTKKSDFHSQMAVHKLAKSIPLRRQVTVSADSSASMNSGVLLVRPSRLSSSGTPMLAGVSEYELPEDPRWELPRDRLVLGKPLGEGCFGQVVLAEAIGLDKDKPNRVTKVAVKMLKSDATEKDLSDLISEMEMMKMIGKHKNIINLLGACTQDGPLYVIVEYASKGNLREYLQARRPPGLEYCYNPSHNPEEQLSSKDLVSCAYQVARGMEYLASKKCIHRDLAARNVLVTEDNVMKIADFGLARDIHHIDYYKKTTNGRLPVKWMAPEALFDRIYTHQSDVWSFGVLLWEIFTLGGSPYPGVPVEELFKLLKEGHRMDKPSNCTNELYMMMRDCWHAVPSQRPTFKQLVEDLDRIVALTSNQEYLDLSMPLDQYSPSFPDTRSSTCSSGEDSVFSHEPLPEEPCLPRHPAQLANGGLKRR
Chain of MERTK (Q12866 whole entry, looked up): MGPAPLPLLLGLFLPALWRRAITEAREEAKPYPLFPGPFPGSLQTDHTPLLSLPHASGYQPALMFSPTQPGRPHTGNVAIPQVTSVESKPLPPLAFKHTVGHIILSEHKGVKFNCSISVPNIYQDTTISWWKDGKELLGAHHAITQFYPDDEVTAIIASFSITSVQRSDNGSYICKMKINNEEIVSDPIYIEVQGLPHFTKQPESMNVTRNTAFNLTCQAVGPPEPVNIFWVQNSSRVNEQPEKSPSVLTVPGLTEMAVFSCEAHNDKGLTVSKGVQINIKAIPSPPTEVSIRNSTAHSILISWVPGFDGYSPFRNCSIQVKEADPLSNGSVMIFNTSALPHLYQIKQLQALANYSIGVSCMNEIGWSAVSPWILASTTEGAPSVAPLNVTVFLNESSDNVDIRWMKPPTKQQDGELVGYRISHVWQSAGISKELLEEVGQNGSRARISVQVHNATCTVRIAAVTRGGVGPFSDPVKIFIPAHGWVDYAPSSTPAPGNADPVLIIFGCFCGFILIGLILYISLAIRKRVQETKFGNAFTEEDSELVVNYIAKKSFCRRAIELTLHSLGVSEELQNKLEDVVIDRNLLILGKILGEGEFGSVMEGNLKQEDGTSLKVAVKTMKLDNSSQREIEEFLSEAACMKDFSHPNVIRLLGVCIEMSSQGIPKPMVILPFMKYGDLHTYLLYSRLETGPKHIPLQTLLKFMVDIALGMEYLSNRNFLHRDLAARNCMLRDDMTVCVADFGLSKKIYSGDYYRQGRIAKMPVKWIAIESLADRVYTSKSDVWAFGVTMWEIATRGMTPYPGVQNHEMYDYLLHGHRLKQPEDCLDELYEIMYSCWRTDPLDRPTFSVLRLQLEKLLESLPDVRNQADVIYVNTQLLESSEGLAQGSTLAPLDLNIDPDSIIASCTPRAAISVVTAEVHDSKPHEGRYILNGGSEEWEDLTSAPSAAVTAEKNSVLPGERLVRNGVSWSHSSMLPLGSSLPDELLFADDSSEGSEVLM

As for FQCKHYACIRQ [TIMP3_Y182_S179C_YF], the phosphorylation enrichment in series [1] is 0.365; in series [2], 0.379; in series [3], 0.72; in series [4] it was 0.378; in series [5], 0.445; in series [6] it was 0.501. The phosphorylation enrichment in series [7] came out at 0.634; in [8], 0.341; in [9], 0.508; in series [10] it was 0.542; in series [11], 0.393; in [12], 0.414. The phosphorylation enrichment in series [13] is 0.35. Further, the SH2 binding enrichment in [14] came out at 2.38; in series [15], 1.74; in [16], 3.79.
For the sequence QMQNPYSRHSS [MUC13_Y501], the phosphorylation enrichment in [1] came to 0.418; in [2], 0.648; in [3] it was 0.584; in series [4], 0.363; in series [5], 0.544; in [6] it was 0.495. Besides, the phosphorylation enrichment in series [7] turned out to be 0.57; in [8] it was 0.572; in series [9], 0.468; in series [10] it was 0.521; in series [11] it was 0.472; in series [12], 0.346. The phosphorylation enrichment in series [13] worked out at 0.416. Besides, the SH2 binding enrichment in series [14] came out at 0.558; in series [15], 0.974; in series [16] it was 0.758.
Regarding RAIELCNDKEK [OTULIN_Y244_Y244C], the phosphorylation enrichment in series [1] was 0.509; in series [2], 0.471; in series [3], 1.38; in series [4] it was 0.406; in series [5] it was 0.381; in series [6] it was 0.425. Moreover, the phosphorylation enrichment was 0.682 in series [7]; 0.354 in [8]; 0.752 in series [9]; 0.852 in series [10]; 0.481 in [11]; 0.395 in series [12]. The phosphorylation enrichment in series [13] was found to be 0.76. The SH2 binding enrichment was 0.753 in series [14], 1 in series [15] and 0.762 in series [16].
In the case of DPLASYLDKVR [KRT10_Y160_R156P], the phosphorylation enrichment came out at 0.468 in series [1]; 0.455 in series [2]; 0.744 in series [3]; 0.413 in [4]; 0.477 in [5]; 0.534 in series [6]. The phosphorylation enrichment was 0.392 in series [7]; 0.48 in [8]; 0.521 in series [9]; 0.751 in series [10]; 0.44 in series [11]; 0.441 in series [12]. Moreover, the phosphorylation enrichment in [13] amounted to 0.608. Besides, the SH2 binding enrichment in series [14] was 0.545; in [15], 0.864; in series [16], 0.767.
In the case of FRAVKYLQMVG [AVPR2_Y117_C112Y_YF], the phosphorylation enrichment was found to be 0.397 in series [1]; 0.366 in series [2]; 1.26 in series [3]; 0.509 in [4]; 0.319 in series [5]; 0.518 in [6]. For the same sequence, the phosphorylation enrichment in [7] was determined as 0.629; in series [8], 0.387; in series [9], 0.902; in series [10], 0.889; in series [11], 0.496; in series [12], 0.366. Further, in [13], the phosphorylation enrichment is 0.393. In addition, the SH2 binding enrichment is 0.552 in series [14], 0.96 in [15] and 3.15 in series [16].
With EIEFLYNENTV [IARS1_Y680], the phosphorylation enrichment amounted to 0.479 in series [1]; 0.632 in [2]; 1.26 in series [3]; 0.641 in series [4]; 0.622 in series [5]; 0.724 in [6]. The phosphorylation enrichment is 0.927 in series [7]; 0.645 in series [8]; 1.26 in series [9]; 1.35 in series [10]; 0.557 in series [11]; 0.515 in series [12]. In series [13], the phosphorylation enrichment turned out to be 0.584. Besides, the SH2 binding enrichment in series [14] was 0.615; in series [15], 0.682; in [16] it was 0.619.
For LPVHFYSHVEH [PYGM_Y204_G205S], the phosphorylation enrichment in [1] was 0.689; in series [2], 1.26; in series [3], 1.63; in series [4] it was 1.05; in series [5] it was 0.852; in series [6] it was 1.29. Also, the phosphorylation enrichment in series [7] was 1.2; in series [8], 0.651; in series [9], 1.71; in series [10], 1.13; in [11], 1.21; in [12], 0.859. Moreover, the phosphorylation enrichment in [13] was 0.878. Also, the figures for the SH2 binding enrichment in series [14], in [15] and in [16] were 22.2, 0.964 and 8.86, respectively.
For FGVTLYPNSGE [MEP1A_Y472_R476G], the phosphorylation enrichment worked out at 0.481 in series [1]; 0.54 in series [2]; 1.12 in series [3]; 0.597 in series [4]; 0.574 in series [5]; 0.714 in series [6]. Besides, the phosphorylation enrichment in series [7] came out at 0.794; in [8] it was 0.524; in series [9], 1.23; in [10] it was 1.28; in series [11] it was 0.473; in series [12], 0.341. For the same sequence, the phosphorylation enrichment in [13] came out at 0.726. In addition, the SH2 binding enrichment in series [14] was determined as 0.588; in series [15], 0.9; in series [16], 0.851.
